For assay [1], the target named is T1, FcγRI (UniProt P12314 16-288).
T1 construct: also called CD64
Put plainly: BLI (Octet). Background: Biolayer interferometry detects binding as a change in optical thickness at a sensor tip.

Assay [2] deals with T2, FcγRIIb (UniProt P31994 46-217, limits assumed).
T2 sequence (looked up): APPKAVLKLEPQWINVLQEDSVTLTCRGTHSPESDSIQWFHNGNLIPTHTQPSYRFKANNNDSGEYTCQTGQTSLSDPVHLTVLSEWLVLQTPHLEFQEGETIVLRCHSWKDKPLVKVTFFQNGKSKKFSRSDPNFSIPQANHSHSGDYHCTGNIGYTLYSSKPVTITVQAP
Put plainly: BLI (Octet).

Assay [3] concerns the target T3, C1q (UniProt P02745 23-245; P02746 28-253; P02747 29-245).
T3 construct: bought C1q coated on ELISA plates at 1 µg/ml; also called complement C1q; complement factor C1q
Put plainly: ELISA on coated C1q. (ELISA stands for enzyme-linked immunosorbent assay.)

Assay [4] has as its target T3, C1q. The experiment in a line: ELISA on coated C1q. This is another data set of the same source.
Assay [5] has as its target T3, C1q. The experiment in a line: ELISA on coated C1q. How it is done: For C1q binding, 96 well plates were coated with C1q (Sigma Cat #: C1740 1 μg/ml) overnight in PBS. After coating, plates were washed 3 times with standard wash buffer (iX PBS+0.05% Tween 20) and blocked with blocking buffer (1% BSA+1× PBS+0.05% Tween 20) for 2 hours at RT. Following blocking, plates were incubated with compound diluted in blocking buffer 100 μL/well and washed 3 times with standard washing buffer. C1q-bound compound was detected by incubation with 1:5000 biotinylated mouse anti-human IgG1(Cat #555869, BD Biosciences) and Streptavidin-HRP (Cat #: 7100-05 Southern Biotech) (100 μl/well) for 1 hour at room temperature followed by washing 3 times with washing buffer, after which color was developed using the standard TMB method according to manufacturer's protocol for 15 minutes. Absorbance was read at 450 nm.
The source holds these as a separate data set.

The target of assay [6] is T1, FcγRI. Put plainly: BLI (Octet). The procedure:
(§1) Binding of complement-preferential stradomers or parent stradomer G045c to FcγRI, FcγRIIb, FcγRIIIa, FcγRIIa, or FcRn was assessed. RU values of dissociation were measured by biolayer interferometry using a ForteBio Octet instrument. His-tagged receptor proteins were bound to the sensor tip in 1× kinetic analysis buffer from ForteBio after which the on rate of the receptor/protein was measured by transferring the sensor tip to a 1× kinetics buffer containing the purified stradomer of choice. Off rate was measured by transferring the sensor tip to a 1× kinetics buffer, and RU value was calculated from the measured maximum binding using the ForteBio software. Biolayer interferometry detects the binding between a ligand immobilized on the biosensor tip surface and an analyte in solution. When binding occurs it produces an increase in optical thickness at the biosensor tip, which results in a wavelength shift (detected as a response unit of “RU”). The maximum binding level (RU max) is the maximum possible amount of sample binding at equilibrium that saturates the amount of ligand on the sensor surface. The RU 300 is the residual sample binding after 300 seconds of dissociation and is useful to characterize the rate of dissociation of the test article from the test ligand.
This is another data set of the same source.

Assay [7] addresses T2, FcγRIIb. Put plainly: BLI (Octet). How it is done:
as §1
The source holds these as a separate data set.

For assay [8], the target named is FcγRIIIa (UniProt P08637 17-208). Put plainly: BLI (Octet); legend: - indicates no binding. The procedure: as §1
For assay [9], the target named is T4, FcγRIIa (UniProt P12318 36-218, limits assumed).
T4 sequence (looked up): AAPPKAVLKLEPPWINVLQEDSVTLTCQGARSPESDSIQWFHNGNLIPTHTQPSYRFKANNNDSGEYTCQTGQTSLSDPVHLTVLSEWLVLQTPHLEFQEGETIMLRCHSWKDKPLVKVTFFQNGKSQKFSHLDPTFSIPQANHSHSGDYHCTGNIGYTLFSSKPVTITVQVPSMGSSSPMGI
Put plainly: BLI (Octet); legend: - indicates no binding. The procedure: as §1

Numbering of substitutions follows the chain as printed. Numbers in names are those of the source. Read-outs that look alike come from different tables or passages of the source.

FcγRIIIa, sequence (P08637 17-208 limits assumed): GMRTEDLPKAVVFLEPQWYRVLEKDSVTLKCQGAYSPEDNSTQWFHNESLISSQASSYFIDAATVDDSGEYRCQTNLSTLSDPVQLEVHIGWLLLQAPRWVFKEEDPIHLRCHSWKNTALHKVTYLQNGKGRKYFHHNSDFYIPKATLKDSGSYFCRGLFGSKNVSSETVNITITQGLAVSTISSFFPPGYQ
T3 sequence (P02745 23-245 limits assumed, chain 1 of 3): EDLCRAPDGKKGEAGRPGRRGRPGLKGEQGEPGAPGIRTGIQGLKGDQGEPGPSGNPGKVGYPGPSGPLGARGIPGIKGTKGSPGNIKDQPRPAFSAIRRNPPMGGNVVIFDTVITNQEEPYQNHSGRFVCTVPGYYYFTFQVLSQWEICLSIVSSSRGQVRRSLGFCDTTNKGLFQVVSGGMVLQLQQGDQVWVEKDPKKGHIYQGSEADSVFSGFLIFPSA
T3 sequence (P02746 28-253 limits assumed, chain 2 of 3): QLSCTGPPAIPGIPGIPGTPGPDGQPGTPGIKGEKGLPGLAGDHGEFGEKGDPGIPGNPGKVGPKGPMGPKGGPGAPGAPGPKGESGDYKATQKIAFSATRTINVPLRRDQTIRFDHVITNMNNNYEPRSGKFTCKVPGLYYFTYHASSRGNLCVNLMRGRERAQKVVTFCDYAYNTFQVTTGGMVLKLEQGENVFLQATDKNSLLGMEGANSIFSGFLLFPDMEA
T3 sequence (P02747 29-245 limits assumed, chain 3 of 3): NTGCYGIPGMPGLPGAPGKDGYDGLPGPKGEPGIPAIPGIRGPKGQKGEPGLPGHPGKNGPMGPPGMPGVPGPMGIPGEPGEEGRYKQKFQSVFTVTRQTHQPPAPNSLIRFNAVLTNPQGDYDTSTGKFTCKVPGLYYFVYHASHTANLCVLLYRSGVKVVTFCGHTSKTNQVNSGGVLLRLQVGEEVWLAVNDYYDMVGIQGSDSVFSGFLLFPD
T1 sequence (P12314 16-288 limits assumed): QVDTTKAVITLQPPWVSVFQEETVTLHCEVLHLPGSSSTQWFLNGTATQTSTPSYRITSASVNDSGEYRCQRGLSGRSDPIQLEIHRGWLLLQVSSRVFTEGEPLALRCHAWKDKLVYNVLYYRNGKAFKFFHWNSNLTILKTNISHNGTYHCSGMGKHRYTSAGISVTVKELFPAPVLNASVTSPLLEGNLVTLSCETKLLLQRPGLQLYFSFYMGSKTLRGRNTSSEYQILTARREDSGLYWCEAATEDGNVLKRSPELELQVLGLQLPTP

B1: G999 (Fc fusion)
chain: ERKCCVECPPCPEPKSCDKTHTCPPCPAPELLRGPSVFLFPPKPKDTLMISRTPEVTCVVVDVEFEDPEVKFNWYVDGVEVHNAKTKPREEQYNSTYRVVSVLTVLHQDWLNGKEYKCKVTNKALPAPIEKTISKAKGQPREPQVYTLPPSRDELTKNQVSLTCLVKGFYPSDIAVEWESNGQPENNYKTTPPVLDSDGSFFLYSKLTVDKSRWQQGNVFSCSVMHEALHNHYTQKSLSLSPGK
notes: G019 background, G236R/S267E/H268F/S324T
As to B1, the binding result in assay [1] is “binds”; in assay [2], “binds”; in [3] it was “no binding”.

B2: G1024 (Fc fusion)
chain: B1 chain with R33G, P35D, D153E, L155M
notes: G019 background, P238D/S267E/H268F/S324T
With B2, the binding result in assay [4] was “no binding”.

B3: G1048 (Fc fusion)
chain: B1 chain with L125F, D153E, L155M
notes: G019 background, G236R/L328F/S267E/H268F/S324T
In the case of B3, in [3], the binding result is reported as “no binding”.

B4: G1001 (Fc fusion)
chain: B1 chain with R33G, N94A, D153E, L155M
notes: G019 background, S267E/H268F/S324T/N297A
B4: the binding result in assay [1] is “binds”; in assay [3], “no binding”.

B5: G994 (Fc fusion)
chain: EPKSCDKTHTCPPCPAPPLLRGPSVFLFPPKPKDTLMISRTPEVTCVVVDVEFEDPEVKFNWYVDGVEVHNAKTKPREEQYNSTYRVVSVLTVLHQDWLNGKEYKCKVTNKALPAPIEKTISKAKGQPREPQVYTLPPSRDELTKNQVSLTCLVKGFYPSDIAVEWESNGQPENNYKTTPPVLDSDGSFFLYSKLTVDKSRWQQGNVFSCSVMHEALHNHYTQKSLSLSPGKERKCCVECPPCP
notes: G045c background, E233P/G236R/S267E/H268F/S324T; leader 1-20 cleaved; also called G994 (DEL); G994 (EEM)
On to B5, for which the binding result in assay [5] is listed as “binds”; in assay [6] it was “binds”; in [7], “binds”; in assay [8], “no binding”; in [9], “no binding”.

B6: G1006 (Fc fusion)
chain: B5 chain with P18E, R21G, D50A
notes: G045c background, D265A/S267E/H268F/S324T; leader 1-20 cleaved
Take B6: the binding result in [5] is reported as “binds”; in [6], “binds”; in assay [7], “binds”; in [8], “no binding”.

B7: G1044 (Fc fusion)
chain: B5 chain with P18E, R21G, P23D, D50C
With B7, the values for the binding result in assay [1] and in assay [3] were “binds” and “no binding”, respectively.

B8: G1043 (Fc fusion)
chain: B5 chain with P18E, R21G, P23D, D50G, D141E, L143M
notes: G045c background, P238D/D265G/S267E/H268F/S324T; leader 1-20 cleaved
B8: the binding result in assay [5] is on record as “binds”; in assay [6] it was “binds”; in assay [7], “binds”; in assay [8], “no binding”.

B9: G1047 (Fc fusion)
chain: B5 chain with P18E, R21G, P23D, L113F
Consider B9, for which the binding result in [1] and in assay [2] was “binds” each time.

B10: G1031 (Fc fusion)
chain: B5 chain with D50A, N82A
For B10, the binding result in assay [4] is given as “no binding”.

B11: G1025 (Fc fusion)
chain: B5 chain with P18E, R21G, P23D
notes: G045c background, P238D/S267E/H268F/S324T; leader 1-20 cleaved
Take B11: the binding result is “binds” in assay [5], “binds” in [6], “binds” in assay [7] and “no binding” in assay [8].

B12: G1027 (Fc fusion)
chain: B5 chain with P18E, R21G, P23D, N82A
notes: G045c background, P238D/S267E/H268F/N297A/S324T; leader 1-20 cleaved
B12: the binding result in [5] was “binds”; in assay [6], “binds”; in assay [7], “binds”; in [8], “no binding”.

B13: G998 (Fc fusion)
chain: B5 chain with P18E, R21G, N82A
notes: G045c background, S267E/H268F/N297A/S324T; leader 1-20 cleaved; also called G998 (DEL); G998 (EEM)
B13: the binding result in assay [5] is “binds”; in assay [6] it was “binds”; in [7], “binds”; in assay [8], “no binding”; in [9], “no binding”.

B14: G1045 (Fc fusion)
chain: B5 chain with P18E, R21G, P23D, D50P
Regarding B14, the binding result in assay [1] is “binds”; in assay [4] it was “no binding”.

B15: G1042 (Fc fusion)
chain: B5 chain with L113F
notes: G045c background, E233P/G236R/S267E/H268F/S324T/L328F; leader 1-20 cleaved
On to B15, for which the binding result is listed as “binds” in assay [5], “binds” in assay [6], “binds” in assay [7] and “no binding” in assay [8].
